Results on 1 substance are retold here after patent US20100003195A1.

The target of experiment [1] is KDR on KDR-transfected 293H cells (human) (UniProt P35968). Kind of experiment: scrambled-peptide microbubbles (Example 35) on KDR-transfected 293H cells, microscopy.
For experiment [2] the target is unchanged. Kind of experiment: scrambled-peptide microbubbles (Example 36) on KDR-transfected 293H cells, microscopy.
The target is the same in experiment [3]. Nature of the experiment: scrambled-peptide microballoons (Example 37) on KDR-transfected 293H cells, microscopy.

As for “microvesicles conjugated to a scrambled control peptide”, the results for the coverage % of the imaged surface in experiment [1], in experiment [2] and in experiment [3] were 2.1%, 2.2% and 0.1%, respectively.
